The data set concerns the molecule itself. Nature of the data set: negative stain transmission electron microscopy; purified recombinant Snf7 protein alone; protofilament assembly looked for.

Consider 2 proteins from publication PMC4865371, “ESCRT-III activation by parallel action of ESCRT-I/II and ESCRT-0/Bro1 during MVB biogenesis” (eLife, 2016).

B1: Snf7^1-225 (α6 truncated Snf7) (domain or fragment, Saccharomyces cerevisiae, UniProt P39929 1-225, looked up)
chain: MWSSLFGWTSSNAKNKESPTKAIVRLREHINLLSKKQSHLRTQITNQENEARIFLTKGNKVMAKNALKKKKTIEQLLSKVEGTMESMEQQLFSIESANLNLETMRAMQEGAKAMKTIHSGLDIDKVDETMDEIREQVELGDEISDAISRPLITGANEVDEDELDEELDMLAQENANQETSKIVNNNVNAAPISENKVSLPSVPSNKIKQSENSVKDGEEEEDEED
notes: Snf7/Vps32, Saccharomyces cerevisiae, residues 1-225, lacks the C-terminal α6 helix; source: recombinant, purified as described (Buchkovich et al., 2013; Henne et al., 2012; Tang et al., 2015)
Regarding B1, the binding result is recorded as “binds”.

B2: Snf7^Q90L (natural protein, Saccharomyces cerevisiae, UniProt P39929 1-240, looked up)
chain: MWSSLFGWTSSNAKNKESPTKAIVRLREHINLLSKKQSHLRTQITNQENEARIFLTKGNKVMAKNALKKKKTIEQLLSKVEGTMESMEQLLFSIESANLNLETMRAMQEGAKAMKTIHSGLDIDKVDETMDEIREQVELGDEISDAISRPLITGANEVDEDELDEELDMLAQENANQETSKIVNNNVNAAPISENKVSLPSVPSNKIKQSENSVKDGEEEEDEEDEDEKALRELQAEMGL
notes: Snf7/Vps32, Saccharomyces cerevisiae, with the point mutation Q90L found in the vps20Δ suppressor screen; source: recombinant, purified as described (Buchkovich et al., 2013; Henne et al., 2012; Tang et al., 2015)
On to B2, for which the binding result is given as “binds”.
